Experimental data from US20240010735A1 (EISAI R AND D MANAGEMENT, published 2024).

B1: mouse anti-EphA4 monoclonal antibody (antibody A) (antibody, mouse IgG1, kappa, V domains shown)
VH: QVQLKQSGPSLVQPSQSLSITCTVSGFSLTRYGVHWVRQSPGKGLEWLGVIWRGGSTDYNAAFMSRLSITKDNSKSQVFFKMNSLQADDTAIYYCAKESLFGVYYDYGYYSMDYWGQGTSVTVSS
VL: DIQMTQSPSSLSASLGERVSLTCRASQEISGYLSWLQQKPDGTIKRLIYAASTLDSGVPKRFSGSRSGSDYSLTISSLESEDFADYYCLQYASYPLTFGAGTKLELKR
notes: purified from hybridoma supernatant
B2: humanized anti-EphA4 monoclonal antibody (antibody B) (antibody, human IgG2, V domains shown)
VH: QVQLVESGGGVVQPGRSLRLSCAVSGFSLTRFGVHWVRQAPGKGLEWVAVIWRGGSTDYNAAFMSRLTISKDNSKNTVYLQMNSLRAEDTAVYYCAKESLFGVYYDYGYYSMDYWGQGTTVTVSS
VL: DIQMTQSPSSLSASVGDRVTITCRASQEISGYLSWLQQKPGKAPKRLIYAASTLDSGVPSRFSGSRSGTEYTLTISSLQPEDFATYYCLQYASYPLTFGGGTKVEIKR
notes: expressed in Expi293F cells; also called humanized antibody of antibody A; HK2-42 / L1-8

What was measured:
[1] = target: T1, human EphA4 fibronectin type III domain 1-MBP-His protein (human, UniProt P54764 205-440); assay: ELISA; domain-MBP-His protein captured by anti-6-His antibody
T1 construct: also called fibronectin type III domain 1 (FN1); not shown: histidine tag
T1 sequence (P54764 205-440 limits assumed): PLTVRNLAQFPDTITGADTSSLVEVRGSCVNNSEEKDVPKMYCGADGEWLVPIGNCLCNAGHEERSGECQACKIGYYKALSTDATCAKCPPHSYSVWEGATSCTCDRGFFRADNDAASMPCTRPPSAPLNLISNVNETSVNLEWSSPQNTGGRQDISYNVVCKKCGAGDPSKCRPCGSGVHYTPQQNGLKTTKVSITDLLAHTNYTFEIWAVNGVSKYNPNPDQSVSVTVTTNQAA
Protocol: (§1) Rabbit anti-6-His antibodies (Bethyl Laboratories) were coated onto the wells of a 96-well plate (Nunc). After incubating at 4° C. overnight, the wells were blocked at room temperature for 1 hour by 1% Block Ace (DS Pharma Biomedical). After washing twice with 0.02% Tween 20/PBS (Nacalai Tesque), human EphA4 extracellular region-MBP-His protein, human EphA4 ligand binding domain-MBP-His protein, human EphA4 fibronectin type III domain 1-NBP-His protein, and human EphA4 fibronectin type III domain 2-MBP-His protein (final concentration 10 nM) were seeded into the wells, and incubated at room temperature for 1 hour. After washing 3 times, antibody A (final concentration 10 nM) was supplemented to the wells, and incubated at room temperature for 1 hour. Horseradish peroxidase-labeled goat anti-mouse IgG Fcγ fragment antibody (Jackson ImmunoResearch Laboratories) was added, and incubated at room temperature for 1 hour. After washing 5 times, TMB solution (KPL) was added to the wells, and upon confirmation of modest coloring, an equal amount of quenching solution (2 N H₂SO₄, Wako Pure Chemicals) was added to the wells, and absorbance at 450 nm and 650 nm were read by a microplate reader (PerkinElmer).
as §1, with “domain 1-MBP-His” for “domain 1-NBP-His”, “antibody B” for “antibody A”, “peroxidase-labeled rabbit anti-human” for “peroxidase-labeled goat anti-mouse”, “IgG Fey” for “IgG Fcγ”, “hour.” for “hour. After washing 5 times, TMB solution (KPL) was added to the wells, and upon confirmation of modest coloring, an equal amount of quenching solution (2 N H₂SO₄, Wako Pure Chemicals) was added to the wells, and absorbance at 450 nm and 650 nm were read by a microplate reader (PerkinElmer).”

[2] = target: T2, human EphA4 fibronectin type III domain 2-MBP-His protein (human, UniProt P54764 436-547); assay: as above
T2 construct: also called fibronectin type III domain 2 (FN2); not shown: histidine tag
T2 sequence (P54764 436-547 limits assumed): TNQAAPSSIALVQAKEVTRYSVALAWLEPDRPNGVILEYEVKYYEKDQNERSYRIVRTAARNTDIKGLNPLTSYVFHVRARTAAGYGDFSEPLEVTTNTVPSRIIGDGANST
Protocol: as §1
as §1, with “domain 1-MBP-His” for “domain 1-NBP-His”, “antibody B” for “antibody A”, “peroxidase-labeled rabbit anti-human” for “peroxidase-labeled goat anti-mouse”, “IgG Fey” for “IgG Fcγ”, “hour.” for “hour. After washing 5 times, TMB solution (KPL) was added to the wells, and upon confirmation of modest coloring, an equal amount of quenching solution (2 N H₂SO₄, Wako Pure Chemicals) was added to the wells, and absorbance at 450 nm and 650 nm were read by a microplate reader (PerkinElmer).”

[3] = target: T3, human EphA4 extracellular region-SEAP-His protein (human, UniProt P54764 20-547); assay: SPR, Biacore T200; EphA4 extracellular region-SEAP-His captured on anti-His chip, antibody as analyte, 1:1 model
T3 construct: also called human EphA4 extracellular region-SEAP-His 10; not shown: secretory alkaline phosphatase (SEAP); histidine tag
T3 sequence (P54764 20-547): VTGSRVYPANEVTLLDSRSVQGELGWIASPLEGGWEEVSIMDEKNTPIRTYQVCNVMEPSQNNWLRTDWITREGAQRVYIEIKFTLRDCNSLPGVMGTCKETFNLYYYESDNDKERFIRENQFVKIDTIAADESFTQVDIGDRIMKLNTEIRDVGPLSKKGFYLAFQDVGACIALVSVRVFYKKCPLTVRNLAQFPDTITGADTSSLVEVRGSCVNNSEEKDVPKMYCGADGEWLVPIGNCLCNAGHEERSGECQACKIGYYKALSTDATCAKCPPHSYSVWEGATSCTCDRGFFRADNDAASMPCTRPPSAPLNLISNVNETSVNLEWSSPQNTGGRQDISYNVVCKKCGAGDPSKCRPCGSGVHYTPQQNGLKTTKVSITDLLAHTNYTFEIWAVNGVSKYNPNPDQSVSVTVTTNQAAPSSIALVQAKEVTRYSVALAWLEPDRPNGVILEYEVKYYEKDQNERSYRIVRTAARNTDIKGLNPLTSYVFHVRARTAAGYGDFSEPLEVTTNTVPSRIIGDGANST
Protocol: The binding affinity of antibody A against mouse and human EphA4 was determined by surface plasmon resonance (SPR method) employing Biacore T200 (GE Healthcare). First, anti-His antibodies (GE Healthcare, 28-9950-56) were fixed to a sensor chip CM5. Fixation was carried out by amine coupling method employing N-hydroxysuccinimide (NHS) and N-ethyl-N′-(3-dimethylaminopropyl) carbodiimide hydrochloride salt (EDC), and ethanolamine was employed for blocking (the sensor chip and reagents for fixation are all from GE Healthcare). This was diluted with the fixation buffer (10 mM sodium acetate, pH 4.5) to 3.5 μg/mL, and fixed onto the sensor chip according to the protocol accompanying Biacore T200. Mouse or human EphA4 extracellular region-SEAP-His 10 was diluted with the running buffer HBS-EP (GE Healthcare, BR-1001-88), and the solution was sent and captured onto the flow cell for 120 seconds (about 10 RU of captured amount). Subsequently, antibody A serially diluted to a range of 100, 50, 25, 12.5, 6.3, 3.2, 1.6, 0 nM with HBS-EP was added to the sensor chip for 120 seconds, and the binding reaction curve at the time of addition (binding phase, 120 seconds) and after completing the addition (dissociation phase, 600 seconds) was sequentially observed. Upon completion of each observation, 4 M MgCl₂ (60 seconds, Wako Pure Chemicals) was added to regenerate the sensor chip. Fitting analysis by 1:1 binding model employing the software accompanying the system, BIA evaluation software, was carried out against the binding reaction curve obtained, and the binding affinity (KD=kd/ka) against mouse and human EphA4 was calculated.
The binding affinity of antibody B obtained in Example 1 against human EphA4 was determined by surface plasmon resonance (SPR method) employing Biacore T200 (GE Healthcare). First, anti-His antibodies (GE Healthcare, 28-9950-56) were fixed to a sensor chip CMS. […]

Row | Binder | binding result [1] | binding result [2] | Kd [3] [nM]
1 | B1 | no binding (tested: 10 nM) | no binding (tested: 10 nM) | 1.19
2 | B2 | no binding (tested: 10 nM) | no binding (tested: 10 nM) | 1.34
